# Laboratory results reported in PMC4944284.
# B1: unnamed (parent)
# chain: MPGFYEIVIKVPSDLDGHLPGISDSFVNWVAEKEWELPPDSDMDLNLIEQAPLTVAEKLQRDFLTEWRRVSKAPEALFFVQFEKGESYFHMHVLVETTGVKSMVLGRFLSQIREKLIQRIYRGIEPTLPNWFAVTKTRNGAGGGNKVVDESYIPNYLLPKTQPELQWAWTNMEQYLSACLNLTERKRLVAQHLTHVSQTQEQNKENQNPNSDAPVIRSKTSARYMELVGWLVDKGITSEKQWIQEDQASYISFNAASNSRSQIKAALDNAGKIMSLTKTAPDYLVGQQPVEDISSNRIYKILELNGYDPQYAASVFLGWATKKFGKRNTIWLFGPATTGKTNIAEAIAHTVPFYGCVNWTNENFPFNDCVDKMVIWWEEGKMTAKVVESAKAILGGSKVRVDQKCKSSAQIDPTPVIVTSNTNMCAVIDGNSTTFEHQQPLQDRMFKFELTRRLDHDFGKVTKQEVKDFFRWAKDHVVEVEHEFYVKKGGAKKRPAPSDADISEPKRVRESVAQPSTSDAEASINYADRLARGHSL
# Variants of: B1
# Test: sedimentation velocity (analytical ultracentrifugation), self-association
# Details: with partner chain of the complex shown; parent: 1; read off a plot
row,Variant,ratio to parent
1,MPGFYEIVIKVPSDLDGHLPGISDSFVNWVAEKEWELPPDSDMDLNLIEQAPLTVAEKLQRDFLTEWRRVSKAPEALFFVQFEKGESYFHMHVLVETTGVKSMVLGRFLSQIREKLIQRIYRGIEPTLPNWFAVTKTRNGAGGGNKVVDESYIPNYLLPKTQPELQWAWTNMEQYLSACLNLTERKRLVAQHLTHVSQTQEQNKENQNPNSDAPVIRSKTSARFMELVGWLVDKGITSEKQWIQEDQASYISFNAASNSRSQIKAALDNAGKIMSLTKTAPDYLVGQQPVEDISSNRIYKILELNGYDPQYAASVFLGWATKKFGKRNTIWLFGPATTGKTNIAEAIAHTVPFYGCVNWTNENFPFNDCVDKMVIWWEEGKMTAKVVESAKAILGGSKVRVDQKCKSSAQIDPTPVIVTSNTNMCAVIDGNSTTFEHQQPLQDRMFKFELTRRLDHDFGKVTKQEVKDFFRWAKDHVVEVEHEFYVKKGGAKKRPAPSDADISEPKRVRESVAQPSTSDAEASINYADRLARGHSL [chain 1 Y224F],0.69
2,MPGFYEIVIKVPSDLDGHLPGISDSFVNWVAEKEWELPPDSDMDLNLIEQAPLTVAEKLQRDFLTEWRRVSKAPEALFFVQFEKGESYFHMHVLVETTGVKSMVLGRFLSQIREKLIQRIYRGIEPTLPNWFAVTKTRNGAGGGNKVVDESYIPNYLLPKTQPELQWAWTNMEQYLSACLNLTERKRLVAQHLTHVSQTQEQNKENQNPNSDAPVIRSKTSARDMELVGWLVDKGITSEKQWIQEDQASYISFNAASNSRSQIKAALDNAGKIMSLTKTAPDYLVGQQPVEDISSNRIYKILELNGYDPQYAASVFLGWATKKFGKRNTIWLFGPATTGKTNIAEAIAHTVPFYGCVNWTNENFPFNDCVDKMVIWWEEGKMTAKVVESAKAILGGSKVRVDQKCKSSAQIDPTPVIVTSNTNMCAVIDGNSTTFEHQQPLQDRMFKFELTRRLDHDFGKVTKQEVKDFFRWAKDHVVEVEHEFYVKKGGAKKRPAPSDADISEPKRVRESVAQPSTSDAEASINYADRLARGHSL [chain 1 Y224D],0.1
